# Measurements: patent US20210388087A1
# Biological target: Human CD137 ECD (human)
# Assay: SPR, vs parent H183/L072
# Sequence of Human CD137 ECD (human) (chain, as listed by the source limits assumed): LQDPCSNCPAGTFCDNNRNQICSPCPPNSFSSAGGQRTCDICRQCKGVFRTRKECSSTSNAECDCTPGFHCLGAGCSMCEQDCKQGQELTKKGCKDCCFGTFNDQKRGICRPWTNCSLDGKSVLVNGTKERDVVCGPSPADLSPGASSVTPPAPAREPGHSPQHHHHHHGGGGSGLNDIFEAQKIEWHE
row,Binder,fold change of affinity
1,"dBBDu183H V95G / dBBDu072L (antibody, name in Kabat numbering, V domains shown) VH: QVQLVESGGGLVQPGRSLRLSCAASGFTFSNAWMHWVRQAPGKGLEWVAQIKDKGNAYAAYYAPSVKGRFTISRDDSKNSIYLQMNSLKTEDTAVYYCHYGHYASASTVLPAFGVDAWGQGTTVTVSS VL: DIVMTQSPLSLPVTPGEPASISCQASQELVHMNRNTYLHWYQQKPGQAPRLLIYKVSNRFPGVPDRFSGSGSGTDFTLKISRVEAEDVGVYYCAQGTSVPFTFGQGTKLEIK",0 fold
2,"dBBDu183H S99N / dBBDu072L (antibody, name in Kabat numbering, V domains shown) VH: QVQLVESGGGLVQPGRSLRLSCAASGFTFSNAWMHWVRQAPGKGLEWVAQIKDKGNAYAAYYAPSVKGRFTISRDDSKNSIYLQMNSLKTEDTAVYYCHYVHYANASTVLPAFGVDAWGQGTTVTVSS VL: DIVMTQSPLSLPVTPGEPASISCQASQELVHMNRNTYLHWYQQKPGQAPRLLIYKVSNRFPGVPDRFSGSGSGTDFTLKISRVEAEDVGVYYCAQGTSVPFTFGQGTKLEIK",0 fold
3,"dBBDu183H V100cN / dBBDu072L (antibody, name in Kabat numbering, V domains shown) VH: QVQLVESGGGLVQPGRSLRLSCAASGFTFSNAWMHWVRQAPGKGLEWVAQIKDKGNAYAAYYAPSVKGRFTISRDDSKNSIYLQMNSLKTEDTAVYYCHYVHYASASTNLPAFGVDAWGQGTTVTVSS VL: DIVMTQSPLSLPVTPGEPASISCQASQELVHMNRNTYLHWYQQKPGQAPRLLIYKVSNRFPGVPDRFSGSGSGTDFTLKISRVEAEDVGVYYCAQGTSVPFTFGQGTKLEIK",0 fold
4,"dBBDu183H S100aG / dBBDu072L (antibody, name in Kabat numbering, V domains shown) VH: QVQLVESGGGLVQPGRSLRLSCAASGFTFSNAWMHWVRQAPGKGLEWVAQIKDKGNAYAAYYAPSVKGRFTISRDDSKNSIYLQMNSLKTEDTAVYYCHYVHYASAGTVLPAFGVDAWGQGTTVTVSS VL: DIVMTQSPLSLPVTPGEPASISCQASQELVHMNRNTYLHWYQQKPGQAPRLLIYKVSNRFPGVPDRFSGSGSGTDFTLKISRVEAEDVGVYYCAQGTSVPFTFGQGTKLEIK",0 fold
5,"dBBDu183H H96G / dBBDu072L (antibody, name in Kabat numbering, V domains shown) VH: QVQLVESGGGLVQPGRSLRLSCAASGFTFSNAWMHWVRQAPGKGLEWVAQIKDKGNAYAAYYAPSVKGRFTISRDDSKNSIYLQMNSLKTEDTAVYYCHYVGYASASTVLPAFGVDAWGQGTTVTVSS VL: DIVMTQSPLSLPVTPGEPASISCQASQELVHMNRNTYLHWYQQKPGQAPRLLIYKVSNRFPGVPDRFSGSGSGTDFTLKISRVEAEDVGVYYCAQGTSVPFTFGQGTKLEIK",0 fold
6,"dBBDu183H S100aN / dBBDu072L (antibody, name in Kabat numbering, V domains shown) VH: QVQLVESGGGLVQPGRSLRLSCAASGFTFSNAWMHWVRQAPGKGLEWVAQIKDKGNAYAAYYAPSVKGRFTISRDDSKNSIYLQMNSLKTEDTAVYYCHYVHYASANTVLPAFGVDAWGQGTTVTVSS VL: DIVMTQSPLSLPVTPGEPASISCQASQELVHMNRNTYLHWYQQKPGQAPRLLIYKVSNRFPGVPDRFSGSGSGTDFTLKISRVEAEDVGVYYCAQGTSVPFTFGQGTKLEIK",0 fold
7,"dBBDu183H D101G / dBBDu072L (antibody, name in Kabat numbering, V domains shown) VH: QVQLVESGGGLVQPGRSLRLSCAASGFTFSNAWMHWVRQAPGKGLEWVAQIKDKGNAYAAYYAPSVKGRFTISRDDSKNSIYLQMNSLKTEDTAVYYCHYVHYASASTVLPAFGVGAWGQGTTVTVSS VL: DIVMTQSPLSLPVTPGEPASISCQASQELVHMNRNTYLHWYQQKPGQAPRLLIYKVSNRFPGVPDRFSGSGSGTDFTLKISRVEAEDVGVYYCAQGTSVPFTFGQGTKLEIK",0 fold
8,"dBBDu183H A98G / dBBDu072L (antibody, name in Kabat numbering, V domains shown) VH: QVQLVESGGGLVQPGRSLRLSCAASGFTFSNAWMHWVRQAPGKGLEWVAQIKDKGNAYAAYYAPSVKGRFTISRDDSKNSIYLQMNSLKTEDTAVYYCHYVHYGSASTVLPAFGVDAWGQGTTVTVSS VL: DIVMTQSPLSLPVTPGEPASISCQASQELVHMNRNTYLHWYQQKPGQAPRLLIYKVSNRFPGVPDRFSGSGSGTDFTLKISRVEAEDVGVYYCAQGTSVPFTFGQGTKLEIK",0 fold
9,"dBBDu183H V95N / dBBDu072L (antibody, name in Kabat numbering, V domains shown) VH: QVQLVESGGGLVQPGRSLRLSCAASGFTFSNAWMHWVRQAPGKGLEWVAQIKDKGNAYAAYYAPSVKGRFTISRDDSKNSIYLQMNSLKTEDTAVYYCHYNHYASASTVLPAFGVDAWGQGTTVTVSS VL: DIVMTQSPLSLPVTPGEPASISCQASQELVHMNRNTYLHWYQQKPGQAPRLLIYKVSNRFPGVPDRFSGSGSGTDFTLKISRVEAEDVGVYYCAQGTSVPFTFGQGTKLEIK",0 fold
10,"dBBDu183H V100cG / dBBDu072L (antibody, name in Kabat numbering, V domains shown) VH: QVQLVESGGGLVQPGRSLRLSCAASGFTFSNAWMHWVRQAPGKGLEWVAQIKDKGNAYAAYYAPSVKGRFTISRDDSKNSIYLQMNSLKTEDTAVYYCHYVHYASASTGLPAFGVDAWGQGTTVTVSS VL: DIVMTQSPLSLPVTPGEPASISCQASQELVHMNRNTYLHWYQQKPGQAPRLLIYKVSNRFPGVPDRFSGSGSGTDFTLKISRVEAEDVGVYYCAQGTSVPFTFGQGTKLEIK",0 fold
11,"dBBDu183H L100dN / dBBDu072L (antibody, name in Kabat numbering, V domains shown) VH: QVQLVESGGGLVQPGRSLRLSCAASGFTFSNAWMHWVRQAPGKGLEWVAQIKDKGNAYAAYYAPSVKGRFTISRDDSKNSIYLQMNSLKTEDTAVYYCHYVHYASASTVNPAFGVDAWGQGTTVTVSS VL: DIVMTQSPLSLPVTPGEPASISCQASQELVHMNRNTYLHWYQQKPGQAPRLLIYKVSNRFPGVPDRFSGSGSGTDFTLKISRVEAEDVGVYYCAQGTSVPFTFGQGTKLEIK",0 fold
12,"dBBDu183H H96N / dBBDu072L (antibody, name in Kabat numbering, V domains shown) VH: QVQLVESGGGLVQPGRSLRLSCAASGFTFSNAWMHWVRQAPGKGLEWVAQIKDKGNAYAAYYAPSVKGRFTISRDDSKNSIYLQMNSLKTEDTAVYYCHYVNYASASTVLPAFGVDAWGQGTTVTVSS VL: DIVMTQSPLSLPVTPGEPASISCQASQELVHMNRNTYLHWYQQKPGQAPRLLIYKVSNRFPGVPDRFSGSGSGTDFTLKISRVEAEDVGVYYCAQGTSVPFTFGQGTKLEIK",0 fold
13,"dBBDu183H F100gG / dBBDu072L (antibody, name in Kabat numbering, V domains shown) VH: QVQLVESGGGLVQPGRSLRLSCAASGFTFSNAWMHWVRQAPGKGLEWVAQIKDKGNAYAAYYAPSVKGRFTISRDDSKNSIYLQMNSLKTEDTAVYYCHYVHYASASTVLPAGGVDAWGQGTTVTVSS VL: DIVMTQSPLSLPVTPGEPASISCQASQELVHMNRNTYLHWYQQKPGQAPRLLIYKVSNRFPGVPDRFSGSGSGTDFTLKISRVEAEDVGVYYCAQGTSVPFTFGQGTKLEIK",0 fold
14,"dBBDu183H F100gN / dBBDu072L (antibody, name in Kabat numbering, V domains shown) VH: QVQLVESGGGLVQPGRSLRLSCAASGFTFSNAWMHWVRQAPGKGLEWVAQIKDKGNAYAAYYAPSVKGRFTISRDDSKNSIYLQMNSLKTEDTAVYYCHYVHYASASTVLPANGVDAWGQGTTVTVSS VL: DIVMTQSPLSLPVTPGEPASISCQASQELVHMNRNTYLHWYQQKPGQAPRLLIYKVSNRFPGVPDRFSGSGSGTDFTLKISRVEAEDVGVYYCAQGTSVPFTFGQGTKLEIK",0 fold
15,"dBBDu183H Y97N / dBBDu072L (antibody, name in Kabat numbering, V domains shown) VH: QVQLVESGGGLVQPGRSLRLSCAASGFTFSNAWMHWVRQAPGKGLEWVAQIKDKGNAYAAYYAPSVKGRFTISRDDSKNSIYLQMNSLKTEDTAVYYCHYVHNASASTVLPAFGVDAWGQGTTVTVSS VL: DIVMTQSPLSLPVTPGEPASISCQASQELVHMNRNTYLHWYQQKPGQAPRLLIYKVSNRFPGVPDRFSGSGSGTDFTLKISRVEAEDVGVYYCAQGTSVPFTFGQGTKLEIK",0 fold
16,"dBBDu183H L100dG / dBBDu072L (antibody, name in Kabat numbering, V domains shown) VH: QVQLVESGGGLVQPGRSLRLSCAASGFTFSNAWMHWVRQAPGKGLEWVAQIKDKGNAYAAYYAPSVKGRFTISRDDSKNSIYLQMNSLKTEDTAVYYCHYVHYASASTVGPAFGVDAWGQGTTVTVSS VL: DIVMTQSPLSLPVTPGEPASISCQASQELVHMNRNTYLHWYQQKPGQAPRLLIYKVSNRFPGVPDRFSGSGSGTDFTLKISRVEAEDVGVYYCAQGTSVPFTFGQGTKLEIK",0 fold
17,"dBBDu183H A98N / dBBDu072L (antibody, name in Kabat numbering, V domains shown) VH: QVQLVESGGGLVQPGRSLRLSCAASGFTFSNAWMHWVRQAPGKGLEWVAQIKDKGNAYAAYYAPSVKGRFTISRDDSKNSIYLQMNSLKTEDTAVYYCHYVHYNSASTVLPAFGVDAWGQGTTVTVSS VL: DIVMTQSPLSLPVTPGEPASISCQASQELVHMNRNTYLHWYQQKPGQAPRLLIYKVSNRFPGVPDRFSGSGSGTDFTLKISRVEAEDVGVYYCAQGTSVPFTFGQGTKLEIK",0 fold
18,"dBBDu183H V100iG / dBBDu072L (antibody, name in Kabat numbering, V domains shown) VH: QVQLVESGGGLVQPGRSLRLSCAASGFTFSNAWMHWVRQAPGKGLEWVAQIKDKGNAYAAYYAPSVKGRFTISRDDSKNSIYLQMNSLKTEDTAVYYCHYVHYASASTVLPAFGGDAWGQGTTVTVSS VL: DIVMTQSPLSLPVTPGEPASISCQASQELVHMNRNTYLHWYQQKPGQAPRLLIYKVSNRFPGVPDRFSGSGSGTDFTLKISRVEAEDVGVYYCAQGTSVPFTFGQGTKLEIK",0 fold
19,"dBBDu183H Y97G / dBBDu072L (antibody, name in Kabat numbering, V domains shown) VH: QVQLVESGGGLVQPGRSLRLSCAASGFTFSNAWMHWVRQAPGKGLEWVAQIKDKGNAYAAYYAPSVKGRFTISRDDSKNSIYLQMNSLKTEDTAVYYCHYVHGASASTVLPAFGVDAWGQGTTVTVSS VL: DIVMTQSPLSLPVTPGEPASISCQASQELVHMNRNTYLHWYQQKPGQAPRLLIYKVSNRFPGVPDRFSGSGSGTDFTLKISRVEAEDVGVYYCAQGTSVPFTFGQGTKLEIK",0 fold
20,"dBBDu183H T100bG / dBBDu072L (antibody, name in Kabat numbering, V domains shown) VH: QVQLVESGGGLVQPGRSLRLSCAASGFTFSNAWMHWVRQAPGKGLEWVAQIKDKGNAYAAYYAPSVKGRFTISRDDSKNSIYLQMNSLKTEDTAVYYCHYVHYASASGVLPAFGVDAWGQGTTVTVSS VL: DIVMTQSPLSLPVTPGEPASISCQASQELVHMNRNTYLHWYQQKPGQAPRLLIYKVSNRFPGVPDRFSGSGSGTDFTLKISRVEAEDVGVYYCAQGTSVPFTFGQGTKLEIK",0 fold
21,"dBBDu183H A100fN / dBBDu072L (antibody, name in Kabat numbering, V domains shown) VH: QVQLVESGGGLVQPGRSLRLSCAASGFTFSNAWMHWVRQAPGKGLEWVAQIKDKGNAYAAYYAPSVKGRFTISRDDSKNSIYLQMNSLKTEDTAVYYCHYVHYASASTVLPNFGVDAWGQGTTVTVSS VL: DIVMTQSPLSLPVTPGEPASISCQASQELVHMNRNTYLHWYQQKPGQAPRLLIYKVSNRFPGVPDRFSGSGSGTDFTLKISRVEAEDVGVYYCAQGTSVPFTFGQGTKLEIK",0 fold
